In PMC4653696 (The Journal of Biological Chemistry, 2015):

How the values were obtained:
Assay in all cases: FRET or BRET; 25 nM donor (AF555)-labelled octamers titrated with acceptor (AF647)-labelled octamers, serial dilutions from 100 nM; 45 mM KCl, 50 mM Tris-HCl pH 8.0; room temperature, 1 h equilibration; triplicate; PCA and curve fit; apparent Kd of end-to-end association of rods
[1] = target: T1, Cdc11(E294C)-capped, otherwise Cys-less septin hetero-octamer (Cdc11-Cdc12-Cdc3-Cdc10-Cdc10-Cdc3-Cdc12-Cdc11) (S. cerevisiae, UniProt P32458 1-415; P32468 1-407; P32457 1-520; P25342 1-322, C43F | C137A | C138A | E294C | C40A | C278S | C124V | C253V | C279V | C266S, Alexa Fluor 555 maleimide (donor) or Alexa Fluor 647 maleimide (acceptor) on C294 (E294C); 0.7-0.8 dye molecules per subunit); settings: both partners purified
T1 construct: intact CTE (residues 303-415) restored; Cdc12, S. cerevisiae mitotic septin, Cys-less variant; Cdc3, S. cerevisiae mitotic septin, Cys-less variant; Cdc10, S. cerevisiae mitotic septin, Cys-less variant; The same preparation was labelled separately with donor (AF555) or acceptor (AF647); both are written as this one molecule; also called Cdc11^AF555; Cdc11^AF647; source: E. coli NiCo21 (DE3), …

[2] = target: T1, Cdc11(E294C)-capped, otherwise Cys-less …; settings: both partners purified; remark: listed apart in the source
[3] = target: T2, Shs1(E344C)-capped, otherwise Cys-less septin hetero-octamer (Shs1-Cdc12-Cdc3-Cdc10-Cdc10-Cdc3-Cdc12-Shs1) (S. cerevisiae, UniProt Q07657 1-551; P32468 1-407; P32457 1-520; P25342 1-322, C29V | C148S | E344C | C40A | C278S | C124V | C253V | C279V | C266S, Alexa Fluor 555 maleimide (donor) or Alexa Fluor 647 maleimide (acceptor) on C344 (E344C)); settings: both partners purified
T2 construct: Cdc12, S. cerevisiae mitotic septin, Cys-less variant; Cdc3, S. cerevisiae mitotic septin, Cys-less variant; Cdc10, S. cerevisiae mitotic septin, Cys-less variant; Donor- and acceptor-labelled preparations are written as this one molecule; also called Shs1^AF555; Shs1^AF647; source: E. coli NiCo21 (DE3), subunits co-expressed, purified (IMAC, chitin-agarose flow-through, SEC), maleimide …

[4] = target: T3, Shs1(Δ2–18/Δα0 E344C)-capped, otherwise Cys-less septin hetero-octamer (S. cerevisiae, UniProt Q07657 1-551; P32468 1-407; P32457 1-520; P25342 1-322, Δ2–18 | C29V | C148S | E344C | C40A | C278S | C124V | C253V | C279V | C266S, Alexa Fluor 555 maleimide (donor) on C344 (E344C)); settings: both partners purified
T3 construct: Cdc12, S. cerevisiae mitotic septin, Cys-less variant; Cdc3, S. cerevisiae mitotic septin, Cys-less variant; Cdc10, S. cerevisiae mitotic septin, Cys-less variant; also called Shs1 Δα0^AF555; Shs1(Δα0) complexes; source: E. coli NiCo21 (DE3), subunits co-expressed, purified (IMAC, chitin-agarose flow-through, SEC), maleimide dye-labelled; not shown: His6, N-terminal, kept; copies: 2 + 2 + 2 + 2
T3 sequence (Q07657 other isoform, or with tags, fused parts or gaps with the stated changes): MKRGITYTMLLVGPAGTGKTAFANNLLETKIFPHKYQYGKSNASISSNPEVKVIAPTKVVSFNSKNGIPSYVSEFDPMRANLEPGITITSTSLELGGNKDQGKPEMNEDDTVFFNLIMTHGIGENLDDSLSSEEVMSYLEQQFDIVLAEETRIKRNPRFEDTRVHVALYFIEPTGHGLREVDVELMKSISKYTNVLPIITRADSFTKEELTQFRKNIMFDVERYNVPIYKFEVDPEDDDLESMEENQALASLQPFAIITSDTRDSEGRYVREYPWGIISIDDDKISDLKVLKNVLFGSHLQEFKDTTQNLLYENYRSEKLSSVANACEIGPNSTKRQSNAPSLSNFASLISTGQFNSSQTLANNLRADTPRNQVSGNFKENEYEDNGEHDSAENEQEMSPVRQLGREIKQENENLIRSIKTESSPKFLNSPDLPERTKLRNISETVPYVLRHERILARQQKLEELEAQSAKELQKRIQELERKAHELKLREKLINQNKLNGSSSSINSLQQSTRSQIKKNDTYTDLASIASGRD

[5] = target: the molecule itself

B1: Shs1(E344C ΔCTE)-capped, otherwise Cys-less septin hetero-octamer (complex, S. cerevisiae)
chain 1: MSTASTPPINLFRRKKEHKRGITYTMLLVGPAGTGKTAFANNLLETKIFPHKYQYGKSNASISSNPEVKVIAPTKVVSFNSKNGIPSYVSEFDPMRANLEPGITITSTSLELGGNKDQGKPEMNEDDTVFFNLIMTHGIGENLDDSLSSEEVMSYLEQQFDIVLAEETRIKRNPRFEDTRVHVALYFIEPTGHGLREVDVELMKSISKYTNVLPIITRADSFTKEELTQFRKNIMFDVERYNVPIYKFEVDPEDDDLESMEENQALASLQPFAIITSDTRDSEGRYVREYPWGIISIDDDKISDLKVLKNVLFGSHLQEFKDTTQNLLYENYRSEKLSSVANACEIGP
chain 2: MSAATATAAPVPPPVGISNLPNQRYKIVNEEGGTFTVMLAGESGLGKTTFINTLFQTVLKRADGQQHRQEPIRKTVEIDITRALLEEKHFELRVNVIDTPGFGDNVNNNKAWQPLVDFIDDQHDSYMRQEQQPYRTKKFDLRVHAVLYFIRPTGHGLKPIDIETMKRLSTRANLIPVIAKADTLTAQELQQFKSRIRQVIEAQEIRIFTPPLDADSKEDAKSGSNPDSAAVEHARQLIEAMPFAIVGSEKKFDNGQGTQVVARKYPWGLVEIENDSHSDFRKLRALLLRTYLLDLISTTQEMHYETYRRLRLEGHENTGEGNEDFTLPAIAPARKLSHNPRYKEEENALKKYFTDQVKAEEQRFRQWEQNIVNERIRLNGDLEEIQGKVKKLEEQVKSLQVKKSHLK
chain 3: MSLKEEQVSIKQDPEQEERQHDQFNDVQIKQESQDHDGVDSQYTNGTQNDDSERFEAAESDVKVEPGLGMGITSSQSEKGQVLPDQPEIKFIRRQINGYVGFANLPKQWHRRSIKNGFSFNLLVVGPDGIGKTTLMKTLFNNDDIEANLVKDYEEELANDQEEEEGQGEGHENQSQEQRHKVKIKSYESVIEENGVKLNLNVIDTEGFGDFLNNDQKSWDPIIKEIDSRFDQYLDAENKINRHSINDKRIHAVLYFIEPTGHYLKPLDLKFMQSVYEKVNLIPVIAKSDILTDEEILSFKKTIMNQLIQSNIELFKPPIYSNDDAENSHLSERLFSSLPYAVIGSNDIVENYSGNQVRGRSYPWGVIEVDNDNHSDFNLLKNLLIKQFMEELKERTSKILYENYRSSKLAKLGIKQDNSVFKEFDPISKQQEEKTLHEAKLAKLEIEMKTVFQQKVSEKEKKLQKSETELFARHKEMKEKLTKQLKALEDKKKQLELSINSASPNVNHSPVPTKKKGFLR
chain 4: MDPLSSVQPASYVGFDTITNQIEHRLLKKGFQFNIMVVGQSGLGKSTLINTLFASHLIDSATGDDISALPVTKTTEMKISTHTLVEDRVRLNINVIDTPGFGDFIDNSKAWEPIVKYIKEQHSQYLRKELTAQRERFITDTRVHAILYFLQPNGKELSRLDVEALKRLTEIANVIPVIGKSDTLTLDERTEFRELIQNEFEKYNFKIYPYDSEELTDEELELNRSVRSIIPFAVVGSENEIEINGETFRGRKTRWSAINVEDINQSDFVYLREFLIRTHLQDLIETTSYIHYEGFRARQLIALKENANSRSSAHMSSNAIQR
modifications: Alexa Fluor 555 maleimide (donor) on C344 (E344C)
notes: Cdc12, S. cerevisiae mitotic septin, Cys-less variant; Cdc3, S. cerevisiae mitotic septin, Cys-less variant; Cdc10, S. cerevisiae mitotic septin, Cys-less variant; also called Shs1 ΔCTE^AF555; source: E. coli NiCo21 (DE3), subunits co-expressed, purified (IMAC, chitin-agarose flow-through, SEC), maleimide dye-labelled; not shown: His6, N-terminal, kept; copies: 2 + 2 + 2 + 2
Kd [1]: 30.4 nM

B2: Cdc11(Δα0 E294C)-capped, otherwise Cys-less septin hetero-octamer (complex, S. cerevisiae)
chain 1: MRGITFTVMIVGQSGSGRSTFINTLFGQQVVDTSTTILLPTDTSTEIDLQLREETVELEDDEGVKIQLNIIDTPGFGDSLDNSPSFEIISDYIRHQYDEILLEESRVRRNPRFKDGRVHAALYLINPTGHGLKEIDVEFIRQLGSLVNIIPVISKSDSLTRDELKLNKKLIMEDIDRWNLPIYNFPFDEDEISDEDYETNMYLRTLLPFAIIGSNEVYEMGGDVGTIRGRKYPWGILDVEDSSISDFVILRNALLISHLHDLKNYTHEILYERYRTCALSGESVAAESIRPNLTKLNGSSSSSTTTRRNTNPFKQSNNINNDVLNPASDMHGQSTGENNETYMTREEQIRLEEERLKAFEERVQQELLLKRQELLQREKELREIEARLEKEAKIKQEE
chain 2: MSAATATAAPVPPPVGISNLPNQRYKIVNEEGGTFTVMLAGESGLGKTTFINTLFQTVLKRADGQQHRQEPIRKTVEIDITRALLEEKHFELRVNVIDTPGFGDNVNNNKAWQPLVDFIDDQHDSYMRQEQQPYRTKKFDLRVHAVLYFIRPTGHGLKPIDIETMKRLSTRANLIPVIAKADTLTAQELQQFKSRIRQVIEAQEIRIFTPPLDADSKEDAKSGSNPDSAAVEHARQLIEAMPFAIVGSEKKFDNGQGTQVVARKYPWGLVEIENDSHSDFRKLRALLLRTYLLDLISTTQEMHYETYRRLRLEGHENTGEGNEDFTLPAIAPARKLSHNPRYKEEENALKKYFTDQVKAEEQRFRQWEQNIVNERIRLNGDLEEIQGKVKKLEEQVKSLQVKKSHLK
chain 3: MSLKEEQVSIKQDPEQEERQHDQFNDVQIKQESQDHDGVDSQYTNGTQNDDSERFEAAESDVKVEPGLGMGITSSQSEKGQVLPDQPEIKFIRRQINGYVGFANLPKQWHRRSIKNGFSFNLLVVGPDGIGKTTLMKTLFNNDDIEANLVKDYEEELANDQEEEEGQGEGHENQSQEQRHKVKIKSYESVIEENGVKLNLNVIDTEGFGDFLNNDQKSWDPIIKEIDSRFDQYLDAENKINRHSINDKRIHAVLYFIEPTGHYLKPLDLKFMQSVYEKVNLIPVIAKSDILTDEEILSFKKTIMNQLIQSNIELFKPPIYSNDDAENSHLSERLFSSLPYAVIGSNDIVENYSGNQVRGRSYPWGVIEVDNDNHSDFNLLKNLLIKQFMEELKERTSKILYENYRSSKLAKLGIKQDNSVFKEFDPISKQQEEKTLHEAKLAKLEIEMKTVFQQKVSEKEKKLQKSETELFARHKEMKEKLTKQLKALEDKKKQLELSINSASPNVNHSPVPTKKKGFLR
chain 4: MDPLSSVQPASYVGFDTITNQIEHRLLKKGFQFNIMVVGQSGLGKSTLINTLFASHLIDSATGDDISALPVTKTTEMKISTHTLVEDRVRLNINVIDTPGFGDFIDNSKAWEPIVKYIKEQHSQYLRKELTAQRERFITDTRVHAILYFLQPNGKELSRLDVEALKRLTEIANVIPVIGKSDTLTLDERTEFRELIQNEFEKYNFKIYPYDSEELTDEELELNRSVRSIIPFAVVGSENEIEINGETFRGRKTRWSAINVEDINQSDFVYLREFLIRTHLQDLIETTSYIHYEGFRARQLIALKENANSRSSAHMSSNAIQR
modifications: Alexa Fluor 555 maleimide (donor) or Alexa Fluor 647 maleimide (acceptor) on C294 (E294C)
notes: Cdc12, S. cerevisiae mitotic septin, Cys-less variant; Cdc3, S. cerevisiae mitotic septin, Cys-less variant; Cdc10, S. cerevisiae mitotic septin, Cys-less variant; also called Cdc11 Δα0^AF555; Cdc11 Δα0^AF647; source: E. coli NiCo21 (DE3), subunits co-expressed, purified (IMAC, chitin-agarose flow-through, SEC), maleimide dye-labelled; not shown: His6, N-terminal, kept; copies: 2 + 2 + 2 + 2
Kd [2]: 19.5 nM
Kd [3]: 8.13 nM
Kd [4]: 9.89 nM
Kd [5]: 33.2 nM
